Experimental data published in patent US20180117168A1, “CYCLODEXTRIN-BASED POLYMERS FOR THERAPEUTIC DELIVERY” (priority 2013, published 2018).

Legend:
[1] = system: Adjuvant-Induced Arthritis (AIA) in Lewis Rat; assay: Lewis rat adjuvant-induced arthritis (AIA) model; type: in vivo; details: for % Max Change in Paw Volume / % Max Change in body weight: day of maximum in brackets; for Spleen weight with treatment (in words): regimens of Table 4
Source text: Animal and Facility: 75 female Lewis Rats at the age of 6 weeks were allowed to acclimate for 7 days in the animal facility (Cephrim Biosciences, Inc., Wellesley, Mass.). Animal housing, handling and procedures followed protocols and guidelines approved by the Institutional Animal Care and Use Committee (IACUC) of Cephrim Biosciences, Inc.
In vivo Adjuvant-Induced Arthritis (AIA) in Lewis Rat: The adjuvant used for induction of arthritis was purchased from Chondrex Inc. (Redmond, Wash.), a suspension that contains 10 mg/mL of heat-killed mycobacteria in incomplete Freund's adjuvant. On the day of induction, the rat was first anesthetized and 0.05 mL of the Complete Freund's Adjuvant (CFA) was subcutaneously injected into the sub-plantar area of the rat footpad. The needle was inserted just under the skin of the footpad pointing toward the ankle to maximize the immune response to the CFA. The rat body weight, paw volumes and clinical assessments were monitored closely after the induction. Once the secondary swelling appeared around the opposite rat paws or ankles, the rats were assigned in one of 10 groups (N=5) according to the severity of arthritis (e.g. the paw volume) and the treatments started at that time (see Table 4).
Rat arthritis was evaluated for body weight, paw volumes and clinical score once every other day. Special care including placing water and food gel supplements in the cages were given for those rats once it became difficult to move around due to their hind limb arthritis. The severity of arthritis was scored by visual inspection. Three un-injected paws were scored on a scale of 0 to 4, where 0=normal; 1, only on few digits; 2, on the paw; 3, on the ankle and 4, all swelling below ankle. The maximum score was 12. In addition to daily scores, the maximum arthritis index (MAI) was calculated at the end of the study for each rat by adding the greatest score recorded for each paw. Foot swelling was also determined objectively by measuring paw volume with a plethysmograph for the secondary arthritis (un-injected foot) and thickness using a caliper for the primary arthritis (injected foot).
Treatment Preparation: Dexamethasone stock was first dissolved in dimethyl sulfoxide at 1 mg/ml and kept in dark at room temperature. The corresponding dosing solution was prepared prior to each treatment by a 1:10 fold dilution with phosphate buffered saline (PBS). The dexamethasone dosing solution was given to the rats subcutaneously (SC) at 10 mL/kg. Tofacitinib (unconjugated parent drug) was added in 5% methylcellulose at 1 mg/mL and 0.25% of Tween-80. A homogeneous dosing suspension of tofacitinib was prepared using a mechanical homogenizer. The tofacitinib suspension was prepared daily and was given to rats by an oral gavage at 10 mL/kg. CDP-hexanoate-tofacitinib conjugate nanoparticles were kept in 4° C. until the end of the dosing period. They were given to their respective groups of rats by subcutaneous route at 10 mL/kg.

[2] = Tofacitinib dosed 5 mg PO twice daily; cited from earlier work
[3] = Drug release and stability of CDP-linker-Tofacitinib conjugate nanoparticles in PBS; type: physicochemical; details: 1x PBS pH 7.4, 37° C.; for In vitro release of free drug (24 hrs in PBS at 37° C.): free drug/conjugated drug
Protocol: The drug release and stability method experiments were run using the following CDP-linker-Tofacitinib nanoparticles: CDP-Gly-Tofac (prepared by the method described in Example 5) and CDP-Hex-Tofac) (prepared by the method described in Example 10).
A 2.5 mg/mL (with regard to polymer) solution of each CDP-linker-Tofac nanoparticle was prepared in lx PBS buffer (pH=7.4). An aliquot of 150 μL was transferred into corresponding HPLC vials. A vial containing each CDP-linker-Tofac nanoparticle in PBS pH 7.4 for each designated time point was placed in a water bath at 37° C. Samples were mixed using a water bath shaker at 100 rpm during the experiments. At each designated time point, a vial was removed for each CDP-linker-Tofac nanoparticle and processed for HPLC using a sample preparation procedure.
To prepare a sample for HPLC analysis, each vial containing 150 μL of sample was mixed with 75 μL of 0.1% formic acid in acetonitrile. If there was any precipitated material in the vial, the contents were also stirred to dissolve the precipitate. If the sample was still opaque, an additional 25 μL of 0.1% formic acid in acetonitrile was added. HPLC analysis was used to determine the amount of free Tofacitinib and the amount of conjugated Tofacitinib in the sample for a given time point.
For the HPLC analysis at each time point, the peak areas of all relevant peaks from the chromatograms were retrieved and the concentration of free and conjugated Tofacitinib was calculated. The sample degradation was calculated based on the percentage of the amount of conjugated drug with regard to the initial starting point of the experiment (at t=0). The drug release was calculated based on the sum of free Tofacitinib and Tofacitinib main degradants at each time point.

[4] = Particle size of formulated nanoparticles (particle sizer); type: physicochemical; details: nanoparticles in water after TFF and 0.22 µm filtration
Protocol: (§1) The reaction mixture was worked up by precipitating the polymer in 15 volumes of acetone (150 mL). The polymer precipitated out immediately as a lump. The solution was stirred for 30 minutes and then the slightly turbid supernatant was decanted. The polymer precipitate was stirred in […] for 30 minutes and then dissolved 70 mL of water to prepare a ˜10 mg/mL polymer concentration. The polymer dissolved smoothly in water and the polymer solution was then filtered through a 0.22 p.m PES membrane. This solution was then washed using TFF (3×30K capsules) using 10 volumes of ultrapure water at pH 3. After diafiltration, the solution was concentrated down to approximately half the volume and the concentrated solution was filtered with a 0.22 p.m cellulose nitrate membrane. The filtered solution was analyzed for particle size using a particle sizer and Tofacitinib concentration using HPLC.
as §1, with “in 90” for “70”

[5] = Pharmacokinetic study, plasma levels of free and bound Tofacitinib by HPLC/MS/MS; type: in vivo, Mice (C57 B16 strain); design: Cl: unit not given here; details: mice; for AUC / Cl / Vd / t1/2: analyte: Conjugate, single bolus 3 mg/kg; for Bioavailability via SC, of the IV based on AUC / Half-life for conjugate after SC dosing relative to the IV dose: 3 mg/kg SC vs IV; for IV AUC relative to the drug dosed PO alone: conjugate IV vs unconjugated tofacitinib PO
Protocol: Mice (C57 B16 strain) were treated by single bolus injection of each linker at 3 mg/kg. Blood samples were collected from individual animals and plasma made using EDTA as an anticoagulant. Levels of free and bound Tofacitinib were measured in the plasma samples using HPLC/MS/MS.

Compound	Spleen weight with treatment (in words) ([1]; AIA rats)	In vitro degradation of conjugate (24 hrs in PBS at 37° C.) [3] [%]	In vitro release of free drug (24 hrs in PBS at 37° C.) [3] [%]	Dv50 [4] [nm]	Dv90 [4] [nm]	Particle PDI [4]	Zavg [4] [nm]	AUC ([5]; route IV, plasma) [µg·h/mL]	Cl ([5]; route IV, plasma)	Vd ([5]; route IV, plasma) [mL]	t1/2 ([5]; route IV, plasma) [h]	AUC ([5]; route SC, plasma) [µg·h/mL]	Cl ([5]; route SC, plasma)	Vd ([5]; route SC, plasma) [mL]	t1/2 ([5]; route SC, plasma) [h]	Half-life for conjugate after SC dosing relative to the IV dose [5]	IV AUC relative to the drug dosed PO alone [5] [×]	other results
C[C@@H]1C[C@H]2[C@@H]3CCC4=CC(=O)C=C[C@]4(C)[C@@]3(F)[C@@H](O)C[C@]2(C)[C@@]1(O)C(=O)CO [Dexamethasone, reference compound]	declined	–	–	–	–	–	–	–	–	–	–	–	–	–	–	–	–	AVE Spleen Weight ([1]; 1 mg/kg, q2d x 7, sc): 0.253 g; MAI (maximum arthritis index) ([1]; 1 mg/kg, q2d x 7, sc): 29; % Max Change in Paw Volume ([1]; 1 mg/kg, q2d x 7, sc): +26.5% (d13); % Max Change in body weight ([1]; 1 mg/kg, q2d x 7, sc): −13.5% (d18)
C[C@@H]1CCN(C(=O)CC#N)C[C@@H]1N(C)c1ncnc2[nH]ccc12 [Tofacitinib, reference compound]	declined	–	–	–	–	–	–	–	–	–	–	–	–	–	–	–	–	AVE Spleen Weight ([1]; 10 mg/kg, bid x 14, po): 0.392 g; MAI (maximum arthritis index) ([1]; 10 mg/kg, bid x 14, po): 30; % Max Change in Paw Volume ([1]; 10 mg/kg, bid x 14, po): +30.7% (D14); % Max Change in body weight ([1]; 10 mg/kg, bid x 14, po): −9.0% (d13); half-life [2]: 3 to 5 h
CDP-Tofacitinib Ethylene Glycol Monoglycinate [CDP-Glycine-Tofacitinib]	–	15.23	9.45	11.4	19.8	0.418	26.23	2061.85	0.04	2.6	50	1254.162	0.06	2.4	28	doubling of half-life	~1000	In vitro release of free drug (24 hrs in PBS at 37° C.) ([3]; listed as CDP-Glycine-Tofac): 9.45%; Bioavailability via SC, of the IV based on AUC [5]: 60%; Free levels, of the circulating conjugate ([5]; 3 mg/kg, plasma): less than 1%
CDP-Tofacitinib Ethylene Glycol Monohexanoate [CDP-Hexanoate-Tofacitinib]	maintained	3.54	2.06	12.8	21.7	0.218	20.64	1030.865	0.07	2.4	23.2	569.866	0.132	8.9	47	increased by two fold	~1000	In vitro release of free drug (24 hrs in PBS at 37° C.) ([3]; listed as CDP-Hex-Tofac): 2.06%; Bioavailability via SC, of the IV based on AUC ([5]; 3 mg/kg): 60%; Bioavailability via SC, of the IV based on AUC ([5]; listed as CDP-Hexanoate-Tofacitinib Conjugate, 3 mg/kg): approximately 60%; Levels of released drug, of the total ([5]; 3 mg/kg, plasma): approximately 5%; AVE Spleen Weight ([1]; 0.3 mg/kg, q7d x 2, sc): 0.643 g; MAI (maximum arthritis index) ([1]; 0.3 mg/kg, q7d x 2, sc): 41; % Max Change in Paw Volume ([1]; 0.3 mg/kg, q7d x 2, sc): +48.0% (d16); % Max Change in body weight ([1]; 0.3 mg/kg, q7d x 2, sc): −12.9% (d16); AVE Spleen Weight ([1]; 1 mg/kg, q7d x 2, sc): 0.642 g; MAI (maximum arthritis index) ([1]; 1 mg/kg, q7d x 2, sc): 46; % Max Change in Paw Volume ([1]; 1 mg/kg, q7d x 2, sc): +45.2% (d16); % Max Change in body weight ([1]; 1 mg/kg, q7d x 2, sc): −14.5% (d18); Paw volume as a percent of the initial paw volume (Day 1) ([1]; 3 mg/kg q7d×2 sc, after two cycles (28 days), FIG. 16): below 100%; AVE Spleen Weight ([1]; 3 mg/kg, q7d x 2, sc): 0.606 g; MAI (maximum arthritis index) ([1]; 3 mg/kg, q7d x 2, sc): 39; % Max Change in Paw Volume ([1]; 3 mg/kg, q7d x 2, sc): +42.5% (d16); % Max Change in body weight ([1]; 3 mg/kg, q7d x 2, sc): −9.3% (d13); Cumulative dose giving similar efficacy, of the cumulative dose of unconjugated tofacitinib ([1]; 3 mg/kg/week vs. 140 mg/kg/week): 2%; Ankle swelling after treatment, of initial paw volume ([1]; AIA rats, level of healthy rats): 100%
